Assay results: patent US20230357348A1 (AstraZeneca / MedImmune, published 2023)
Starred links: 1 amine or outer side, 2 acyl side, 3 side chain; linkers in the order of their positions; H or OH if unused. Non-standard residues stand in square brackets, D forms with d. Groups on a side chain read outwards from the residue. No end group written: not given here. *: point of attachment. C20 diacid = O=C(O)CCCCCCCCCCCCCCCCCCC(=O)*; C18 diacid = O=C(O)CCCCCCCCCCCCCCCCC(=O)*; γGlu = O=C(O)[C@H](CCC(=O)[*:2])N[*:1]; αMeF = C[C@](N)(Cc1ccccc1)C(=O)O; AEEA = NCCOCCOCC(=O)O; Aib = CC(C)(N)C(=O)O

B1: Peptide 456 (peptide)
peptide: H[Aib]QGTFTSDVSK[αMeF]LDRK([AEEA-AEEA-γGlu-C20 diacid])RAQDFVRWLL[Aib]E-NH2
modifications: N-terminus assumed
SMILES: CC(C)C[C@H](NC(=O)[C@H](Cc1c[nH]c2ccccc12)NC(=O)[C@H](CCCNC(=N)N)NC(=O)[C@@H](NC(=O)[C@H](Cc1ccccc1)NC(=O)[C@H](CC(=O)O)NC(=O)[C@H](CCC(N)=O)NC(=O)[C@H](C)NC(=O)[C@H](CCCNC(=N)N)NC(=O)[C@H](CCCCNC(=O)COCCOCCNC(=O)COCCOCCNC(=O)CC[C@H](NC(=O)CCCCCCCCCCCCCCCCCCC(=O)O)C(=O)O)NC(=O)[C@H](CCCNC(=N)N)NC(=O)[C@H](CC(=O)O)NC(=O)[C@H](CC(C)C)NC(=O)[C@](C)(Cc1ccccc1)NC(=O)[C@H](CCCCN)NC(=O)[C@H](CO)NC(=O)[C@@H](NC(=O)[C@H](CC(=O)O)NC(=O)[C@H](CO)NC(=O)[C@@H](NC(=O)[C@H](Cc1ccccc1)NC(=O)[C@@H](NC(=O)CNC(=O)[C@H](CCC(N)=O)NC(=O)C(C)(C)NC(=O)[C@@H](N)Cc1c[nH]cn1)[C@@H](C)O)[C@@H](C)O)C(C)C)C(C)C)C(=O)N[C@@H](CC(C)C)C(=O)NC(C)(C)C(=O)N[C@@H](CCC(=O)O)C(N)=O
B2: Peptide 455 (peptide)
peptide: H[Aib]QGTFTSDVSK[αMeF]LDKK([AEEA-AEEA-γGlu-γGlu-C20 diacid])RAQDFVRWLL[Aib]E-NH2
modifications: N-terminus assumed
SMILES: CC(C)C[C@H](NC(=O)[C@H](Cc1c[nH]c2ccccc12)NC(=O)[C@H](CCCNC(=N)N)NC(=O)[C@@H](NC(=O)[C@H](Cc1ccccc1)NC(=O)[C@H](CC(=O)O)NC(=O)[C@H](CCC(N)=O)NC(=O)[C@H](C)NC(=O)[C@H](CCCNC(=N)N)NC(=O)[C@H](CCCCNC(=O)COCCOCCNC(=O)COCCOCCNC(=O)CC[C@H](NC(=O)CC[C@H](NC(=O)CCCCCCCCCCCCCCCCCCC(=O)O)C(=O)O)C(=O)O)NC(=O)[C@H](CCCCN)NC(=O)[C@H](CC(=O)O)NC(=O)[C@H](CC(C)C)NC(=O)[C@](C)(Cc1ccccc1)NC(=O)[C@H](CCCCN)NC(=O)[C@H](CO)NC(=O)[C@@H](NC(=O)[C@H](CC(=O)O)NC(=O)[C@H](CO)NC(=O)[C@@H](NC(=O)[C@H](Cc1ccccc1)NC(=O)[C@@H](NC(=O)CNC(=O)[C@H](CCC(N)=O)NC(=O)C(C)(C)NC(=O)[C@@H](N)Cc1c[nH]cn1)[C@@H](C)O)[C@@H](C)O)C(C)C)C(C)C)C(=O)N[C@@H](CC(C)C)C(=O)NC(C)(C)C(=O)N[C@@H](CCC(=O)O)C(N)=O
B3: Peptide 465 (peptide)
peptide: H[Aib]QGTFTSDVSK[αMeF]LDLK([AEEA-AEEA-γGlu-γGlu-C18 diacid])RAQDFVQWLL[Aib]T-OH
modifications: N-terminus assumed
SMILES: CC(C)C[C@H](NC(=O)[C@H](CC(=O)O)NC(=O)[C@H](CC(C)C)NC(=O)[C@](C)(Cc1ccccc1)NC(=O)[C@H](CCCCN)NC(=O)[C@H](CO)NC(=O)[C@@H](NC(=O)[C@H](CC(=O)O)NC(=O)[C@H](CO)NC(=O)[C@@H](NC(=O)[C@H](Cc1ccccc1)NC(=O)[C@@H](NC(=O)CNC(=O)[C@H](CCC(N)=O)NC(=O)C(C)(C)NC(=O)[C@@H](N)Cc1c[nH]cn1)[C@@H](C)O)[C@@H](C)O)C(C)C)C(=O)N[C@@H](CCCCNC(=O)COCCOCCNC(=O)COCCOCCNC(=O)CC[C@H](NC(=O)CC[C@H](NC(=O)CCCCCCCCCCCCCCCCC(=O)O)C(=O)O)C(=O)O)C(=O)N[C@@H](CCCNC(=N)N)C(=O)N[C@@H](C)C(=O)N[C@@H](CCC(N)=O)C(=O)N[C@@H](CC(=O)O)C(=O)N[C@@H](Cc1ccccc1)C(=O)N[C@H](C(=O)N[C@@H](CCC(N)=O)C(=O)N[C@@H](Cc1c[nH]c2ccccc12)C(=O)N[C@@H](CC(C)C)C(=O)N[C@@H](CC(C)C)C(=O)NC(C)(C)C(=O)N[C@H](C(=O)O)[C@@H](C)O)C(C)C
B4: Peptide 466 (peptide)
peptide: H[Aib]QGTFTSDVSK[αMeF]LDTK([AEEA-AEEA-γGlu-C18 diacid])RAQDFVQWLLE[Aib]G-NH2
modifications: N-terminus assumed
SMILES: CC(C)C[C@H](NC(=O)[C@H](Cc1c[nH]c2ccccc12)NC(=O)[C@H](CCC(N)=O)NC(=O)[C@@H](NC(=O)[C@H](Cc1ccccc1)NC(=O)[C@H](CC(=O)O)NC(=O)[C@H](CCC(N)=O)NC(=O)[C@H](C)NC(=O)[C@H](CCCNC(=N)N)NC(=O)[C@H](CCCCNC(=O)COCCOCCNC(=O)COCCOCCNC(=O)CC[C@H](NC(=O)CCCCCCCCCCCCCCCCC(=O)O)C(=O)O)NC(=O)[C@@H](NC(=O)[C@H](CC(=O)O)NC(=O)[C@H](CC(C)C)NC(=O)[C@](C)(Cc1ccccc1)NC(=O)[C@H](CCCCN)NC(=O)[C@H](CO)NC(=O)[C@@H](NC(=O)[C@H](CC(=O)O)NC(=O)[C@H](CO)NC(=O)[C@@H](NC(=O)[C@H](Cc1ccccc1)NC(=O)[C@@H](NC(=O)CNC(=O)[C@H](CCC(N)=O)NC(=O)C(C)(C)NC(=O)[C@@H](N)Cc1c[nH]cn1)[C@@H](C)O)[C@@H](C)O)C(C)C)[C@@H](C)O)C(C)C)C(=O)N[C@@H](CC(C)C)C(=O)N[C@@H](CCC(=O)O)C(=O)NC(C)(C)C(=O)NCC(N)=O
B5: Peptide 454 (peptide)
peptide: H[Aib]QGTFTSDVSK[αMeF]LDKK([AEEA-AEEA-γGlu-C20 diacid])RAQDFVRWLEA[Aib]G-NH2
modifications: N-terminus assumed
SMILES: CC(C)C[C@H](NC(=O)[C@H](Cc1c[nH]c2ccccc12)NC(=O)[C@H](CCCNC(=N)N)NC(=O)[C@@H](NC(=O)[C@H](Cc1ccccc1)NC(=O)[C@H](CC(=O)O)NC(=O)[C@H](CCC(N)=O)NC(=O)[C@H](C)NC(=O)[C@H](CCCNC(=N)N)NC(=O)[C@H](CCCCNC(=O)COCCOCCNC(=O)COCCOCCNC(=O)CC[C@H](NC(=O)CCCCCCCCCCCCCCCCCCC(=O)O)C(=O)O)NC(=O)[C@H](CCCCN)NC(=O)[C@H](CC(=O)O)NC(=O)[C@H](CC(C)C)NC(=O)[C@](C)(Cc1ccccc1)NC(=O)[C@H](CCCCN)NC(=O)[C@H](CO)NC(=O)[C@@H](NC(=O)[C@H](CC(=O)O)NC(=O)[C@H](CO)NC(=O)[C@@H](NC(=O)[C@H](Cc1ccccc1)NC(=O)[C@@H](NC(=O)CNC(=O)[C@H](CCC(N)=O)NC(=O)C(C)(C)NC(=O)[C@@H](N)Cc1c[nH]cn1)[C@@H](C)O)[C@@H](C)O)C(C)C)C(C)C)C(=O)N[C@@H](CCC(=O)O)C(=O)N[C@@H](C)C(=O)NC(C)(C)C(=O)NCC(N)=O
B6: Peptide 469 (peptide)
peptide: H[Aib]QGTFTSDVSK[αMeF]LDTK([AEEA-AEEA-γGlu-γGlu-C20 diacid])RAQDFVQWLLE[Aib]G-NH2
modifications: N-terminus assumed
SMILES: CC(C)C[C@H](NC(=O)[C@H](Cc1c[nH]c2ccccc12)NC(=O)[C@H](CCC(N)=O)NC(=O)[C@@H](NC(=O)[C@H](Cc1ccccc1)NC(=O)[C@H](CC(=O)O)NC(=O)[C@H](CCC(N)=O)NC(=O)[C@H](C)NC(=O)[C@H](CCCNC(=N)N)NC(=O)[C@H](CCCCNC(=O)COCCOCCNC(=O)COCCOCCNC(=O)CC[C@H](NC(=O)CC[C@H](NC(=O)CCCCCCCCCCCCCCCCCCC(=O)O)C(=O)O)C(=O)O)NC(=O)[C@@H](NC(=O)[C@H](CC(=O)O)NC(=O)[C@H](CC(C)C)NC(=O)[C@](C)(Cc1ccccc1)NC(=O)[C@H](CCCCN)NC(=O)[C@H](CO)NC(=O)[C@@H](NC(=O)[C@H](CC(=O)O)NC(=O)[C@H](CO)NC(=O)[C@@H](NC(=O)[C@H](Cc1ccccc1)NC(=O)[C@@H](NC(=O)CNC(=O)[C@H](CCC(N)=O)NC(=O)C(C)(C)NC(=O)[C@@H](N)Cc1c[nH]cn1)[C@@H](C)O)[C@@H](C)O)C(C)C)[C@@H](C)O)C(C)C)C(=O)N[C@@H](CC(C)C)C(=O)N[C@@H](CCC(=O)O)C(=O)NC(C)(C)C(=O)NCC(N)=O
B7: Peptide 462 (peptide)
peptide: H[Aib]QGTFTSDVSK[αMeF]LDTK([AEEA-AEEA-γGlu-C18 diacid])RARDFVQWLLEAG-OH
modifications: N-terminus assumed
SMILES: CC(C)C[C@H](NC(=O)[C@H](CC(C)C)NC(=O)[C@H](Cc1c[nH]c2ccccc12)NC(=O)[C@H](CCC(N)=O)NC(=O)[C@@H](NC(=O)[C@H](Cc1ccccc1)NC(=O)[C@H](CC(=O)O)NC(=O)[C@H](CCCNC(=N)N)NC(=O)[C@H](C)NC(=O)[C@H](CCCNC(=N)N)NC(=O)[C@H](CCCCNC(=O)COCCOCCNC(=O)COCCOCCNC(=O)CC[C@H](NC(=O)CCCCCCCCCCCCCCCCC(=O)O)C(=O)O)NC(=O)[C@@H](NC(=O)[C@H](CC(=O)O)NC(=O)[C@H](CC(C)C)NC(=O)[C@](C)(Cc1ccccc1)NC(=O)[C@H](CCCCN)NC(=O)[C@H](CO)NC(=O)[C@@H](NC(=O)[C@H](CC(=O)O)NC(=O)[C@H](CO)NC(=O)[C@@H](NC(=O)[C@H](Cc1ccccc1)NC(=O)[C@@H](NC(=O)CNC(=O)[C@H](CCC(N)=O)NC(=O)C(C)(C)NC(=O)[C@@H](N)Cc1c[nH]cn1)[C@@H](C)O)[C@@H](C)O)C(C)C)[C@@H](C)O)C(C)C)C(=O)N[C@@H](CCC(=O)O)C(=O)N[C@@H](C)C(=O)NCC(=O)O

What follows are binders tested against human glucagon receptor (hGCGR) (human, UniProt P47871 26-477) (assay: cell-based or functional assay).
Chain of human glucagon receptor (hGCGR) (P47871 26-477): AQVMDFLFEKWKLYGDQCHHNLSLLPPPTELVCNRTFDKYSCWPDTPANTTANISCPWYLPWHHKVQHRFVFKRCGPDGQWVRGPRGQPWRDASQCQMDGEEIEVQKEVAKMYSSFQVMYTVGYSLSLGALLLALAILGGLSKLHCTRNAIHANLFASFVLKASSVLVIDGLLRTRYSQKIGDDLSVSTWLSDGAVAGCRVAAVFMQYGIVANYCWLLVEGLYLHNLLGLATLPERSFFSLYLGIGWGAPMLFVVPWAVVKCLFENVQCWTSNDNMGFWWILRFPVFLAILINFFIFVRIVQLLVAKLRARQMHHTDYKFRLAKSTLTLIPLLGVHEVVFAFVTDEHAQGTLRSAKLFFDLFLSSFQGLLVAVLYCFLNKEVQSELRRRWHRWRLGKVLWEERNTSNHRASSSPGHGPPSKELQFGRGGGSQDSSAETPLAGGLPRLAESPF

hGluc-R EC50 (pM) | Binder
80.3 pM | B1
114 pM | B2
436 pM | B3
131 pM | B4
66.5 pM | H[Aib]QGTFTSDVSK[αMeF]LDKK([AEEA-AEEA-γGlu-C20 diacid])RAQDFVRWLLAE-NH2 [Peptide 460]
274 pM | B5
538 pM | B6
292 pM | H[Aib]QGTFTSDVSK[αMeF]LDTK([AEEA-AEEA-γGlu-γGlu-C18 diacid])RAQDFVQWLLE[Aib]G-NH2 [Peptide 468]
89.2 pM | B7
36.9 pM | H[Aib]QGTFTSDVSK[αMeF]LDKK([AEEA-AEEA-γGlu-C18 diacid])RAQDFVRWLLA (not fully specified (C-terminus)) [Peptide 459]

The binders below were run against human GLP-1 receptor (hGLP-1R) (human, UniProt P43220 24-463) (assay: cell-based or functional assay).

hGLP-1R EC50 (pM) | Binder
133 pM | B1
127 pM | B2
485 pM | B3
35.6 pM | B4
117 pM | H[Aib]QGTFTSDVSK[αMeF]LDKK([AEEA-AEEA-γGlu-C20 diacid])RAQDFVRWLLAE-NH2 [Peptide 460]
173 pM | B5
255 pM | B6
67.5 pM | H[Aib]QGTFTSDVSK[αMeF]LDTK([AEEA-AEEA-γGlu-γGlu-C18 diacid])RAQDFVQWLLE[Aib]G-NH2 [Peptide 468]
39.5 pM | B7
32.7 pM | H[Aib]QGTFTSDVSK[αMeF]LDKK([AEEA-AEEA-γGlu-C18 diacid])RAQDFVRWLLA (not fully specified (C-terminus)) [Peptide 459]
